Reference: article PMC5668312, “Structural basis of katanin p60:p80 complex formation” (Scientific Reports, 2017)

Target: T1, katanin p80 C-terminal domain (p80-CTD, aa 481-658 of mouse p80), 6xHis-tagged (mouse, UniProt Q8BG40 481-658)
T1 construct: katanin p80 subunit, mouse, C-terminal domain, residues 481-658; also called 6xHis-p80CTD; source: E. coli BL21(DE3), pET28a, co-expressed with p60-MIT, purified (IMAC, SEC); not shown: 6xHis, N-terminal, kept
Assay: AUC; sedimentation velocity of the co-purified p60-MIT:p80-CTD complex, 300 nM to 50 μM, 20 °C, 42,000 rpm, 20 mM HEPES pH 7.4, 150 mM NaCl, 2 mM 2-mercaptoethanol; apparent Kd estimated
Conditions: both partners purified

T1 sequence (Q8BG40 481-658): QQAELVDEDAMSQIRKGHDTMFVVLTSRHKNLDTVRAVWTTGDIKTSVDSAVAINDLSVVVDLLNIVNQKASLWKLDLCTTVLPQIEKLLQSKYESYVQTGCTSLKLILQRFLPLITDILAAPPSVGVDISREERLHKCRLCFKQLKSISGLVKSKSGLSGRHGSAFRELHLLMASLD

stoichiometry N: 1
B1: katanin p60 MIT domain (p60-MIT, aa 1-78 of mouse p60), wild type (domain or fragment, UniProt Q9WV86 1-78, looked up)
chain: MSLQMIVENVKLAREYALLGNYDSAMVYYQGVLDQMNKYLYSVKDTHLRQKWQQVWQEINVEAKQVKDIMKTLESFKL
notes: katanin p60 subunit, mouse, N-terminal MIT domain, residues 1-78; Co-purified with m2 as the p60-MIT:6xHis-p80CTD complex; source: E. coli BL21(DE3), pET28a, co-expressed with 6xHis-p80-CTD, purified (IMAC, SEC)
